From patent publication US20250042968A1 (UNIVERSITY OF MIAMI, published 2025) come the findings set out here.

This test has as its target T1, EphA2 (UniProt P29317 25-534, limits assumed).
T1 construct: also called EphA2 receptor
In words: biolayer interferometry (ForteBio Octet). (In BLI a coated tip is dipped into the sample, and binding shifts an interference pattern.)

T1 sequence (P29317 25-534 limits assumed): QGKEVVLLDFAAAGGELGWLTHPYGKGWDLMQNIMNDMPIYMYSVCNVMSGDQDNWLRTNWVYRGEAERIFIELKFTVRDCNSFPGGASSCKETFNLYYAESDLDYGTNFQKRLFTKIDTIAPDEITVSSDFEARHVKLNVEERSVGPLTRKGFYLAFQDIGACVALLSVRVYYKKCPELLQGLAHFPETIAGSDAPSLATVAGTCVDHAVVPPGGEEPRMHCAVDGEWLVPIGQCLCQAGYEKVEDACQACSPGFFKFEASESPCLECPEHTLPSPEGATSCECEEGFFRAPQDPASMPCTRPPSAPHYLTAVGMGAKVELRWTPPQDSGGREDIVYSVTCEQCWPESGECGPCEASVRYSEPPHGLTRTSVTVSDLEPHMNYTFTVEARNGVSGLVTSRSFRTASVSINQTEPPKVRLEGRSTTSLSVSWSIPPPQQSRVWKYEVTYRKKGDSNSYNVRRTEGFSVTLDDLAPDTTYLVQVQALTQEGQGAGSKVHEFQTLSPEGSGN

B1: SNEW (peptide)
peptide: SNEWIQPRLPQH
notes: Known EphB2 targeting peptide, tested alongside the xEFN peptides as a comparator
For the molecule B1, the binding result is “no binding”.
